Data from patent publication US20090028842A1, “Dekkera/Brettanomyces Cytosine Deaminases And Their Use” (ZGene A/S, priority 2005, published 2009).

Legend:
[1] = CD activities in crude extracts of BL21 cells transformed with CD genes; format: biochemical; settings: cytosine 500 uM, triplicates, mean with standard deviation
Description: Bacteria or cell lines were grown as described, harvested and stored at −80° C. until activity testing. Cells were submitted to brief sonication in extraction buffer (50 mM Tris/HCl pH 7.5, 1 mM DTT, 10% (v/v) glycerol, 1% (v/v) Triton X-100, protease inhibitor cocktail Complete™ from Roche Diagnostics). Cytosine deaminase activities were determined spectrophotometrically by monitoring the absorbance decrease at 286 nm (Δε286=−0.68 mM^−1 cm^−1) resulting from the deamination of cytosine to uracil. Assays were initiated by the addition of CD to 0.5 mM cytosine in 50 mM Tris-HCL at pH 7.5 and 30° C. and followed for 150 sec. One unit of CD was defined to catalyze the formation of 1 μmol of uracil per min. Dual beam recording ZEIS spectrophotometer, thermostated at 30° C., was used for the assays.
To better characterize D. bruxellensis CD over expression of the protein in bacteria was done. In addition to D. bruxellensis CD, homologous genes from S. cerevisiae was also amplified from total genomic DNA and cloned as histidin tagged construct into pET100 bacterial expression vector. The plasmids were transformed into E. coli BL21 strain and protein expression was induced by IPTG for 8 hours. After harvesting, cell extracts were spectrophotometrically measured for cytosine and 5-FC deamination. All yeast CDs tested were functional when expressed in bacteria (Table 2).

[2] = CD activities with purified his-tagged proteins; format: biochemical; settings: purified his-tagged protein, 37° C., cytosine 500 μM, triplicates, mean with standard deviation
Description: For recombinant protein expression, E. coli cells were grown to a density of A600 nm=0.5-0.6 in LB medium supplemented with 100 μg/ml ampicillin, and the expression was induced with 10 μM IPTG for 8 h at 25° C. The cells were harvested by centrifugation, and the pellet was resuspended in 25 ml ice-cold binding buffer A […] (50 mM sodium phosphate pH 8.0; 300 mM NaCl; 10% glycerol; 25 mM imidazole) containing protease inhibitor cocktail (Complete™-EDTA free from Roche Diagnostics). The cells were homogenized using a French Press, subjected to centrifugation at 12,000×g for 30 minutes (4° C.), filtered through a […] Whatman glass microfiber filter and a […] cellulose acetate filter, and loaded onto a 5 ml Ni^2+-NTA column (Qiagen). […]
Bacteria or cell lines were grown as described, harvested and stored at −80° C. until activity testing. […] Cytosine deaminase activities were determined spectrophotometrically by monitoring the absorbance decrease at 286 nm (Δε286=−0.68 mM^−1 cm^−1) resulting from the deamination of cytosine to uracil. […]
To characterize the substrate specificities of yeast CDs, purified proteins were measured at 37° C. and fixed cytosine concentration and assays was performed as described in Example 1 (Enzyme assays) (Table 3).

[3] = format: physicochemical; settings: storage at 50° C., his-tagged enzyme
Description: Purified and his-tagged CD from D. bruxellensis and S. cerevisiae CD were assayed after different periods of storage at 50° C. and 37° C. (FIGS. 8a and 8b). Indeed, D. bruxellensis CD was extremely stable at 50° C. when compared to S. cerevisiae CD which lost all activity after only 4 minutes. Half life for D. bruxellensis CD at 50° C. was app. 3 hours (FIG. 8a). […] It should be observed that the temperature stability of the proteins without his-tags could be different.

B1: Sc CD (PZG738): cytosine deaminase from Saccharomyces cerevisiae (FCY1 gene), recombinant his-tagged protein in pET100 (protein, UniProt Q12178 1-158, looked up)
Cytosine deaminase: MVTGGMASKWDQKGMDIAYEEAALGYKEGGVPIGGCLINNKDGSVLGRGHNMRFQKGSATLHGEISTLENCGRLEGKVYKDTTLYTTLSPCDMCTGAIIMYGIPRCVVGENVNFKSKGEKYLQTRGHEVVVVDDERCKKIMKQFIDERPQDWFEDIGE
modifications: His tag
notes: cytosine deaminase from Saccharomyces cerevisiae (FCY1 gene), recombinant his-tagged protein in pET100
CD activity, Cytosine [1]: 40.69 ± 0.56 | CD activity, Cytosine [2]: 888.4 ± 4.8 U/mg/min | Time after which all activity was lost [3]: 4 min
